Data from patent US20240092919A1.

Key:
Assay in all cases: cell-based or functional assay
[1] = biological target: human GPC3 on cells (human) (UniProt P51654)
[2] = biological target: Human T cell receptor on human primary T cells (human) (UniProt P01848)
[3] = biological target: Cynomolgus T cell receptor on cynomolgus primary T cells (cynomolgus monkey)

Sequence of Human T cell receptor on human primary T cells (human) (P01848 whole entry, chain 1 of 2): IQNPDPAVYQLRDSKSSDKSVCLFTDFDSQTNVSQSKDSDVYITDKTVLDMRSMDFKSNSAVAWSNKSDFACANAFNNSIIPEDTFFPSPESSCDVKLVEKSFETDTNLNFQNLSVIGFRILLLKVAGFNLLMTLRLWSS
Sequence of Human T cell receptor on human primary T cells (human) (P01850 whole entry, chain 2 of 2, further chain): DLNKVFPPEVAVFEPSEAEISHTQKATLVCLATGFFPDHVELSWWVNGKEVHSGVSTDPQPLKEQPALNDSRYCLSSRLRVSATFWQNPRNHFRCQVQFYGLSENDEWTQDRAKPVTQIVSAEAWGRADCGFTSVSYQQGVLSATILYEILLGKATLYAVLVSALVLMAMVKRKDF

Binder	IC50 (M) BxPC-3, xCELLigence human TDC assay, E:T 15:1, 60 h [1] [M]	IC50 (M) HepG2, xCELLigence human TDC assay, E:T 15:1, 60 h [1] [M]	IC50 (M) Huh-7, xCELLigence human TDC assay, E:T 15:1, 60 h [1] [M]	IC50 (M) NCI-H661, xCELLigence human TDC assay, E:T 15:1, 60 h [1] [M]	% lysis, KG-1a, Human T cell mediated killing [2] [%]	% lysis, MOLM-13, Human T cell mediated killing [2] [%]	Average EC50 (M), KG-1a, Human T cell mediated killing [2] [M]	Average EC50 (M), MOLM-13, Human T cell mediated killing [2] [M]	IC50 (M), xCELLigence cell killing, Human T cell mediated killing, E:T 15:1 [2] [M]	% lysis, KG-1a, Cynomolgus T cell mediated killing [3] [%]	% lysis, MOLM-13, Cynomolgus T cell mediated killing [3] [%]	Average EC50 (M), KG-1a, Cynomolgus T cell mediated killing [3] [M]	Average EC50 (M), MOLM-13, Cynomolgus T cell mediated killing [3] [M]	IC50 (M) NCI-H23, xCELLigence human TDC assay, E:T 15:1, 60 h [1] [M]
A022600412 (protein) DVQLVESGGGVVQPGGSLRLSCVASGYVHKINFYGWYRQAPGKEREKVAHISIGDQTDYADSAKGRFTISRDESKNTVYLQMNSLRPEDTAAYYCRALSRIWPYDYWGQGTLVTVSSGGGGSEVQLVESGGGVVQPGGSLRLSCAASGFTFSSFAMTWVRRPPGKGLEWVATITNAGVTSYADSVKGRFTISRDNAKNTLYLQMNSLRPEDTALYICANARRTGPRAPTDIGSYRGQGTLVTVSSGGGGSGGGGSGGGGSGGGGSEVQLVESGGGVVQPGGSLRLSCAASGFTFRSFGMSWVRQAPGKGPEWVSSISGSGSDTLYADSVKGRFTISRDNSKNTLYLQMNSLRPEDTALYYCTIGGSLSRSSQGTLVTVSSA	> 1e-07	3.82e-10	1.53e-09	6.18e-10	–	–	–	–	–	–	–	–	–	–
T017000676 (bispecific antibody) DVQLVESGGGLVQAGGSLRLSCAASGITSKINDMGWYRQTPGNYREWVASITATGTTNYRDSVKGRFTISRDNAKSTVYLQMNSLKPEDTTVYYCNTFPPISNFWGQGTLVTVSSGGGGSGGGGSGGGGSGGGGSGGGGSGGGGSGGGGSEVQLVESGGGLVQAGGPLRLSCAASGRTFSSYVMGWFRQAPGKEREFVAAIYWSNGKTQYTDSVKGRFTISGDNAKNTVYLQMNSLNPEDTAVYYCVADKDETGFRTLPIAYDYWGQGTLVTVSSGGGGSGGGGSGGGGSGGGGSGGGGSGGGGSGGGGSEVQLVESGGGVVQPGGSLRLSCVASGYVHKINFYGWYRQAPGKEREKVAHISIGDQTDYADSAKGRFTISRDESKNTVYLQMNSLRPEDTALYYCRALSRIWPYDYWGQGTLVTVSSA	–	–	–	–	41	25	8.2e-11	2.3e-11	1.1e-10	28	26	1.4e-11	2e-11	–
T017000139 (bispecific antibody) DVQLVESGGGLVQPGGSLRLSCVASGDVHKINFLGWYRQAPGKEREKVAHISIGDQTDYADSAKGRFTISRDESKNMVYLQMNSLKPEDTAVYFCRAFSRIYPYDYWGQGTLVTVSSGGGGSGGGGSGGGGSGGGGSGGGGSGGGGSGGGGSEVQLVESGGGLVQAGGPLRLSCAASGRTFSSYVMGWFRQAPGKEREFVAAIYWSNGKTQYTDSVKGRFTISGDNAKNTVYLQMNSLNPEDTAVYYCVADKDETGFRTLPIAYDYWGQGTLVTVSSGGGGSGGGGSGGGGSGGGGSGGGGSGGGGSGGGGSEVQLVESGGGLVQAGGSLRLSCAASGITSKINDMGWYRQTPGNYREWVASITATGTTNYRDSVKGRFTISRDNAKSTVYLQMNSLKPEDTTVYYCNTFPPISNFWGQGTLVTVSSA	–	–	–	–	51	25	7.8e-11	2.5e-11	4.7e-11	26	40	1.2e-11	7.2e-11	–
T017000670 (bispecific antibody) DVQLVESGGGVVQPGGSLRLSCVASGYVHKINFYGWYRQAPGKEREKVAHISIGDQTDYADSAKGRFTISRDESKNTVYLQMNSLRPEDTALYYCRALSRIWPYDYWGQGTLVTVSSGGGGSGGGGSGGGGSGGGGSGGGGSGGGGSGGGGSEVQLVESGGGLVQAGGPLRLSCAASGRTFSSYVMGWFRQAPGKEREFVAAIYWSNGKTQYTDSVKGRFTISGDNAKNTVYLQMNSLNPEDTAVYYCVADKDETGFRTLPIAYDYWGQGTLVTVSSGGGGSGGGGSGGGGSGGGGSGGGGSGGGGSGGGGSEVQLVESGGGLVQAGGSLRLSCAASGITSKINDMGWYRQTPGNYREWVASITATGTTNYRDSVKGRFTISRDNAKSTVYLQMNSLKPEDTTVYYCNTFPPISNFWGQGTLVTVSSA	–	–	–	–	52	26	7.4e-11	2.5e-11	9.4e-11	30	34	8.1e-12	2e-11	–
T017000671 (bispecific antibody) DVQLVESGGGLVQAGGSLRLSCAASGITSKINDMGWYRQTPGNYREWVASITATGTTNYRDSVKGRFTISRDNAKSTVYLQMNSLKPEDTTVYYCNTFPPISNFWGQGTLVTVSSGGGGSGGGGSGGGGSGGGGSGGGGSGGGGSGGGGSEVQLVESGGGVVQPGGSLRLSCVASGYVHKINFYGWYRQAPGKEREKVAHISIGDQTDYADSAKGRFTISRDESKNTVYLQMNSLRPEDTALYYCRALSRIWPYDYWGQGTLVTVSSGGGGSGGGGSGGGGSGGGGSGGGGSGGGGSGGGGSEVQLVESGGGLVQAGGPLRLSCAASGRTFSSYVMGWFRQAPGKEREFVAAIYWSNGKTQYTDSVKGRFTISGDNAKNTVYLQMNSLNPEDTAVYYCVADKDETGFRTLPIAYDYWGQGTLVTVSSA	–	–	–	–	21	14	1.5e-10	1.5e-10	–	–	46	–	2.1e-11	–
T017000677 (bispecific antibody) DVQLVESGGGLVQAGGPLRLSCAASGRTFSSYVMGWFRQAPGKEREFVAAIYWSNGKTQYTDSVKGRFTISGDNAKNTVYLQMNSLNPEDTAVYYCVADKDETGFRTLPIAYDYWGQGTLVTVSSGGGGSGGGGSGGGGSGGGGSGGGGSGGGGSGGGGSEVQLVESGGGVVQPGGSLRLSCVASGYVHKINFYGWYRQAPGKEREKVAHISIGDQTDYADSAKGRFTISRDESKNTVYLQMNSLRPEDTALYYCRALSRIWPYDYWGQGTLVTVSSGGGGSGGGGSGGGGSGGGGSGGGGSGGGGSGGGGSEVQLVESGGGLVQAGGSLRLSCAASGITSKINDMGWYRQTPGNYREWVASITATGTTNYRDSVKGRFTISRDNAKSTVYLQMNSLKPEDTTVYYCNTFPPISNFWGQGTLVTVSSA	–	–	–	–	65	20	1.5e-11	1.2e-11	–	–	54	–	5.1e-12	–
T017000675 (bispecific antibody) DVQLVESGGGLVQAGGPLRLSCAASGRTFSSYVMGWFRQAPGKEREFVAAIYWSNGKTQYTDSVKGRFTISGDNAKNTVYLQMNSLNPEDTAVYYCVADKDETGFRTLPIAYDYWGQGTLVTVSSGGGGSGGGGSGGGGSGGGGSGGGGSGGGGSGGGGSEVQLVESGGGLVQAGGSLRLSCAASGITSKINDMGWYRQTPGNYREWVASITATGTTNYRDSVKGRFTISRDNAKSTVYLQMNSLKPEDTTVYYCNTFPPISNFWGQGTLVTVSSGGGGSGGGGSGGGGSGGGGSGGGGSGGGGSGGGGSEVQLVESGGGVVQPGGSLRLSCVASGYVHKINFYGWYRQAPGKEREKVAHISIGDQTDYADSAKGRFTISRDESKNTVYLQMNSLRPEDTALYYCRALSRIWPYDYWGQGTLVTVSSA	–	–	–	–	46	23	9.2e-11	3.4e-11	5e-11	26	31	2.6e-11	6.9e-11	–
A022600425 (protein) DVQLVESGGGVVQPGGSLRLSCVASGYVHKINFYGWYRQAPGKEREKVAHISIGDQTDYADSAKGRFTISRDESKNTVYLQMNSLRPEDTAAYYCRALSRIWPYDYWGQGTLVTVSSGGGGSEVQLVESGGGVVQPGGSLRLSCAASGSIFRSVFSSSTMEWYRQAPGKKRELVARIAPGEGTYYGALYADSVKGRFTISRDNAKNTVYLQMNSLRPEDTALYYCASGVAWGQGTLVTVSSGGGGSGGGGSGGGGSGGGGSEVQLVESGGGVVQPGGSLRLSCAASGFTFSSFAMTWVRRPPGKGLEWVATITNAGVTSYADSVKGRFTISRDNAKNTLYLQMNSLRPEDTALYICANARRTGPRAPTDIGSYRGQGTLVTVSSGGGGSGGGSEVQLVESGGGVVQPGGSLRLSCAASGFTFRSFGMSWVRQAPGKGPEWVSSISGSGSDTLYADSVKGRFTISRDNSKNTLYLQMNSLRPEDTALYYCTIGGSLSRSSQGTLVTVSSA	> 1e-07	1.11e-10	1.58e-10	2.59e-10	–	–	–	–	–	–	–	–	–	> 1e-07
A022600426 (protein) DVQLVESGGGVVQPGGSLRLSCVASGYVHKINFYGWYRQAPGKEREKVAHISIGDQTDYADSAKGRFTISRDESKNTVYLQMNSLRPEDTAAYYCRALSRIWPYDYWGQGTLVTVSSGGGGSEVQLVESGGGVVQPGGSLRLSCAASGSIFRSVFSSSTMEWYRQAPGKKRELVARIAPGEGTYYGALYADSVKGRFTISRDNAKNTVYLQMNSLRPEDTALYYCASGVAWGQGTLVTVSSGGGGSGGGGSGGGGSGGGGSEVQLVESGGGVVQPGGSLRLSCAASGFTFSSFAMTWVRRPPGKGLEWVATITNKGVTSYADSVKGRFTISRDNAKNTLYLQMNSLRPEDTALYICANARRTGPRAPTDIGSYRGQGTLVTVSSGGGGSGGGSEVQLVESGGGVVQPGGSLRLSCAASGFTFRSFGMSWVRQAPGKGPEWVSSISGSGSDTLYADSVKGRFTISRDNSKNTLYLQMNSLRPEDTALYYCTIGGSLSRSSQGTLVTVSSA	> 1e-07	1.25e-10	1.09e-10	2.64e-10	–	–	–	–	–	–	–	–	–	> 1e-07
